Test results from paper PMC4686654, “A molecular ruler regulates cytoskeletal remodelling by the Rho kinases” (Nature Communications, 2015).

Key:
[1] = biological target: the molecule itself; experiment: SEC; Superdex 75 in 20 mM Tris pH 7.5, 100 mM NaCl, 1 mM TCEP, 4 mM MgCl2
[2] = biological target: T1, RBD fragment of human ROCK2 (977-1,047) (human, UniProt O75116 977-1047); experiment: as above; conditions: both partners purified
T1 chain: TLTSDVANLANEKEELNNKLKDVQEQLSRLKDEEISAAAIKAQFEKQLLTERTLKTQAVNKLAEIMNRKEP

[3] = biological target: human ROCK2 1-408 (kinase domain alone) (human); experiment: not stated; recombinant catalytic domain in solution; conditions: both partners purified
[4] = biological target: the molecule itself; experiment: static light scattering; recombinant ROCK2 in solution; mass 327 kDa, polydispersity index 1.000

B1: RBD fragment of human ROCK1 (947-1,015) (domain or fragment, UniProt Q13464 947-1015, looked up)
chain: MLTKDIEILRRENEELTEKMKKAEEEYKLEKEEEISNLKAAFEKNINTERTLKTQAVNKLAEIMNRKDF
notes: also called ROCK1 RBD; source: E. coli BL21 (DE3), purified (NiNTA, Superdex 75)
stoichiometry N [1]: 2

B2: RBD fragment of human ROCK2 (977-1,047) (domain or fragment)
chain: T1 chain
modifications: none; His6 tag omitted. The limits are read in O75116 numbering: the fragment is said to match the crystal-structure RBD, and ROCK1 947-1015 (RhoBD 949-1015) aligns with O75116 979-1047 (RhoBD), so …
stoichiometry N [2]: 2

B3: human ROCK2 1-408 (kinase domain alone) (domain or fragment)
chain: MPGAPETAPGDGAGASRQRKLEALIRDPRSPINVESLLDGLNSLVLDLDFPALRKNKNIDNFLNRYEKIVKKIRGLQMKAEDYDVVKVIGRGAFGEVQLVRHKASQKVYAMKLLSKFEMIKRSDSAFFWEERDIMAFANSPWVVQLFYAFQDDRYLYMVMEYMPGGDLVNLMSNYDVPEKWAKFYTAEVVLALDAIHSMGLIHRDVKPDNMLLDKHGHLKLADFGTCMKMDETGMVHCDTAVGTPDYISPEVLKSQGGDGFYGRECDWWSVGVFLYEMLVGDTPFYADSLVGTYSKIMDHKNSLCFPEDAEISKHAKNLICAFLTDREVRLGRNGVEEIRQHPFFKNDQWHWDNIRETAAPVVPELSSDIDSSNFDDIEDDKGDVETFPIPKAFVGNQLPFIGFTYYR
modifications: paper residues 1-408 on the 1,379-residue form = O75116 10-417; activation loop not phosphorylated; constitutive dimer; tag cleaved / paper residues 1-408 on the 1,379-residue form = O75116 10-417 …
stoichiometry N [3]: 2

B4: human ROCK2 (Rho-associated coiled-coil kinase 2), full-length recombinant (enzyme)
chain: MPGAPETAPGDGAGASRQRKLEALIRDPRSPINVESLLDGLNSLVLDLDFPALRKNKNIDNFLNRYEKIVKKIRGLQMKAEDYDVVKVIGRGAFGEVQLVRHKASQKVYAMKLLSKFEMIKRSDSAFFWEERDIMAFANSPWVVQLFYAFQDDRYLYMVMEYMPGGDLVNLMSNYDVPEKWAKFYTAEVVLALDAIHSMGLIHRDVKPDNMLLDKHGHLKLADFGTCMKMDETGMVHCDTAVGTPDYISPEVLKSQGGDGFYGRECDWWSVGVFLYEMLVGDTPFYADSLVGTYSKIMDHKNSLCFPEDAEISKHAKNLICAFLTDREVRLGRNGVEEIRQHPFFKNDQWHWDNIRETAAPVVPELSSDIDSSNFDDIEDDKGDVETFPIPKAFVGNQLPFIGFTYYRENLLLSDSPSCRETDSIQSRKNEESQEIQKKLYTLEEHLSNEMQAKEELEQKCKSVNTRLEKTAKELEEEITLRKSVESALRQLEREKALLQHKNAEYQRKADHEADKKRNLENDVNSLKDQLEDLKKRNQNSQISTEKVNQLQRQLDETNALLRTESDTAARLRKTQAESSKQIQQLESNNRDLQDKNCLLETAKLKLEKEFINLQSALESERRDRTHGSEIINDLQGRICGLEEDLKNGKILLAKVELEKRQLQERFTDLEKEKSNMEIDMTYQLKVIQQSLEQEEAEHKATKARLADKNKIYESIEEAKSEAMKEMEKKLLEERTLKQKVENLLLEAEKRCSLLDCDLKQSQQKINELLKQKDVLNEDVRNLTLKIEQETQKRCLTQNDLKMQTQQVNTLKMSEKQLKQENNHLMEMKMNLEKQNAELRKERQDADGQMKELQDQLEAEQYFSTLYKTQVRELKEECEEKTKLGKELQQKKQELQDERDSLAAQLEITLTKADSEQLARSIAEEQYSDLEKEKIMKELEIKEMMARHKQELTEKDATIASLEETNRTLTSDVANLANEKEELNNKLKDVQEQLSRLKDEEISAAAIKAQFEKQLLTERTLKTQAVNKLAEIMNRKEPVKRGNDTDVRRKEKENRKLHMELKSEREKLTQQMIKYQKELNEMQAQIAEESQIRIELQMTLDSKDSDIEQLRSQLQALHIGLDSSSIGSGPGDAEADDGFPESRLEGWLSLPVRNNTKKFGWVKKYVIVSSKKILFYDSEQDKEQSNPYMVLDIDKLFHVRPVTQTDVYRADAKEIPRIFQILYANEGESKKEQEFPVEPVGEKSNYICHKGHEFIPTLYHFPTNCEACMKPLWHMFKPPPALECRRCHIKCHKDHMDKKEEIIAPCKVYYDISTAKNLLLLANSTEEQQKWVSRLVKKIPKKPPAPDPFARSSPRTSMKIQQNQSIRRPSRQLAPNKPS
modifications: mono- and diphosphorylated species, two adjacent serines (1,352-1,353)
stoichiometry N [4]: 2
